Patent publication US20250296992A1 (Genmab, published 2025)

How the values were obtained:
human SLITRK6 on cells [1] = target: T1, human SLITRK6 on cells (human, UniProt Q9H5Y7 27-841); test: flow cytometry on RT112/84 cells, PE-conjugated anti-human Fc
T1 construct: whole, on cells
Experimental: (§1) Specifically, cells were incubated with 50 μL of mAbs or ADCs in series dilutions in PBS containing 1% BSA at 4° C. for 30 min. The cells were washed twice with PBS containing 1% BSA, stained with PE-conjugated anti human Fc in PBS containing 1% BSA and then incubated at 4° C. for 20 min. After that the cells were washed twice with PBS and analyzed by a flow cytometer.

human SLITRK6 on cells [2] = target: T1, human SLITRK6 on cells; test: flow cytometry on KYSE-410 cells, PE-conjugated anti-human Fc
Experimental: as §1

human SLITRK6 on cells [3] = target: T1, human SLITRK6 on cells; test: flow cytometry on CHP-212 cells, PE-conjugated anti-human Fc
Experimental: as §1

mouse SLITRK6 = target: T2, mouse SLITRK6 (mouse, UniProt Q8C110 23-609); test: BLI; antigen-his on anti-his tips, antibody or ADC as analyte; 1:1 fit
T2 construct: extracellular domain; also called Mu SLITRK6; not shown: his tag
T2 sequence (Q8C110 23-609): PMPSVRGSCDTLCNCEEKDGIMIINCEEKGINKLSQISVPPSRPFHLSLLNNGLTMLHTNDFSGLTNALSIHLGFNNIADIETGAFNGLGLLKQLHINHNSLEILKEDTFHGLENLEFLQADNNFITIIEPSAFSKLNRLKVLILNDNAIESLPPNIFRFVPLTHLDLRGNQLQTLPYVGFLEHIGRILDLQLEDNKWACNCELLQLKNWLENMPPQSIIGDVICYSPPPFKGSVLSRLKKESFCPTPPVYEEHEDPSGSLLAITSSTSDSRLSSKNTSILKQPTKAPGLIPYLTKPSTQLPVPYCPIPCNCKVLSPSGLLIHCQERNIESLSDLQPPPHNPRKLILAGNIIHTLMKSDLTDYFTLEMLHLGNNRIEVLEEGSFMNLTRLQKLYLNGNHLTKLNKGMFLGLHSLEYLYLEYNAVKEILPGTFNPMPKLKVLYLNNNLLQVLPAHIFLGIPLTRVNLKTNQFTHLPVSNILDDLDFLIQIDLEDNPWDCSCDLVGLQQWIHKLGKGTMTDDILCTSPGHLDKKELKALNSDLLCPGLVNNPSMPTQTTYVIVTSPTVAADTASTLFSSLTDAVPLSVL

[4] = target: T3, cynomolgus monkey SLITRK6 extracellular domain linked to his tag (cynomolgus monkey, UniProt G7PVK4 27-608); test: as above
T3 construct: extracellular domain; also called cynoSLITRK6; Cyno SLITRK6; not shown: his tag

[5] = target: T4, human SLITRK6 extracellular domain linked to his tag (human, UniProt Q9H5Y7 27-608); test: as above
T4 construct: extracellular domain; also called huSLITRK6; Hu SLITRK6; not shown: his tag

human SLITRK6 on cells [6] = target: T1, human SLITRK6 on cells; test: flow cytometry on SW780 cells, PE-conjugated anti-human Fc
Experimental: as §1

human SLITRK6 on cells [7] = target: T1, human SLITRK6 on cells; test: as above; remark: listed apart in the source
Experimental: (§2) The binding activity of mAbs and ADCs was evaluated by flow cytometer (Beckman, Cytoflex). Specifically, cells were incubated with 50 μL of mAbs or ADCs in series dilutions in PBS containing 1% BSA at 4° C. for 30 min. The cells were washed twice with PBS containing 1% BSA, stained with PE-conjugated anti human Fc in PBS containing 1% BSA and then incubated at 4° C. for 20 min. After that the cells were washed twice with PBS and analyzed by a flow cytometer.

human SLITRK6 on cells [8] = target: T1, human SLITRK6 on cells; test: flow cytometry on 293F-huSLITRK6 cells, PE-conjugated anti-human Fc
Experimental: as §1

human SLITRK6 on cells [9] = target: T1, human SLITRK6 on cells; test: flow cytometry on RT4 cells, PE-conjugated anti-human Fc
Experimental: as §2

human SLITRK6 on cells [10] = target: T1, human SLITRK6 on cells; test: flow cytometry on KYSE-30 cells, PE-conjugated anti-human Fc
Experimental: as §1

rat SLITRK6 = target: T5, rat SLITRK6 (rat, UniProt D3ZP44 27-607); test: BLI, antigen on anti-his tips
T5 construct: extracellular domain; not shown: his tag

human SLITRK4 = target: T6, human SLITRK4 (human, UniProt Q8IW52 19-618, limits assumed); test: BLI, antigen on anti-his tips
T6 construct: The method text describes only the SLITRK6 ECD-his construct; also called Hu SLITRK4
T6 sequence (looked up): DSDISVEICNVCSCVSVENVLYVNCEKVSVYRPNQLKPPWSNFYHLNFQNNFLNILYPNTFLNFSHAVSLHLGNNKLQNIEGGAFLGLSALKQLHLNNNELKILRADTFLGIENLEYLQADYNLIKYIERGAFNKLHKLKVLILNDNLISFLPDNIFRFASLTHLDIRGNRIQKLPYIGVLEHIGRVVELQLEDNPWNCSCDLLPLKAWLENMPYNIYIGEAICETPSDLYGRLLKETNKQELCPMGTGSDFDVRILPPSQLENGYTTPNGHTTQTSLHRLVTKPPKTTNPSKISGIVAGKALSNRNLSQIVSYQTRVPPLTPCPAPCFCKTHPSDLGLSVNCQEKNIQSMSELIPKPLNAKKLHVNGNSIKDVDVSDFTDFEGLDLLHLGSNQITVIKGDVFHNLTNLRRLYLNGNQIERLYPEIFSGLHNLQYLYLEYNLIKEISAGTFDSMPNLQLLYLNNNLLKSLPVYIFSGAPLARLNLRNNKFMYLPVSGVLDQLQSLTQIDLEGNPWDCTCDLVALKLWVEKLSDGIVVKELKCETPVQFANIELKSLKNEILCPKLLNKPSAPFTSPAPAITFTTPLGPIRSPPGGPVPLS
Experimental: (§3) Binding kinetic of antibody-antigen was characterized by the bio-layer interferometry (BLI). 100 nM of SLITRK6′ extracellular domain linked to his tag was immobilized on anti-his biosensor tips (Fortebio). The sensors were rinsed with the buffer (50 mM Tris-AcOH, pH 6 or 7.5, 0.05% v/v surfactant P20) for 10 min to remove the unbound molecules, then dipped in the antibody solutions at different concentrations for 180 seconds and interspersed by a rinsing step in the buffer solution for 300 seconds. Binding affinity was calculated using ForteBio Data Acquisition 6.3 software (ForteBio) and was derived by fitting the kinetic data to a 1:1 Langmuir binding model utilizing global fitting algorithms. The dissociation or association equilibrium constant KD was calculated from the binding rate constants as KD=koff/kₒₙ (where koff and kₒₙ represent the dissociation kinetic constant and the association kinetic constant, respectively).

human SLITRK1 = target: T7, human SLITRK1 (human, UniProt Q96PX8 18-622, limits assumed); test: BLI, antigen on anti-his tips
T7 construct: The method text describes only the SLITRK6 ECD-his construct; also called Hu SLITRK1
T7 sequence (looked up): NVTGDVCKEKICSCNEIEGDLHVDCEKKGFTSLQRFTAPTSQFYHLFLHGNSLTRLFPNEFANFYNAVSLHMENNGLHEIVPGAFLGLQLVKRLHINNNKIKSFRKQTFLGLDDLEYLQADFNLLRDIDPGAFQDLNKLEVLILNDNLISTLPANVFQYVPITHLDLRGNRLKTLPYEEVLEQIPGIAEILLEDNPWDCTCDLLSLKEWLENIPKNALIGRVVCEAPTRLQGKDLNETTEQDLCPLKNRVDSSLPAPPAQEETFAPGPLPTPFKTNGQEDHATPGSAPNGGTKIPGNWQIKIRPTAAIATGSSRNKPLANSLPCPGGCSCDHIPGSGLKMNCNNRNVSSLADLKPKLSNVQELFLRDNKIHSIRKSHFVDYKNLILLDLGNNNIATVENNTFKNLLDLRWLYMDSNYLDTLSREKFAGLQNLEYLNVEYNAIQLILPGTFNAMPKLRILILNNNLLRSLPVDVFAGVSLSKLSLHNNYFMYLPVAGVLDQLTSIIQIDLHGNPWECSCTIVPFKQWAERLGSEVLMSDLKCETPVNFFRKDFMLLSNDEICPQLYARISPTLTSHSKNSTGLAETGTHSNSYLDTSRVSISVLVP
Experimental: as §3

human SLITRK6 on cells [11] = target: T1, human SLITRK6 on cells; test: flow cytometry on RT4 cells, PE-conjugated anti-human Fc; remark: listed apart in the source
Experimental: as §1

B1: hu1H2-03 with a LALA mutation (hu1H2-03-LALA) (antibody, V domains shown)
VH: EVQLVESGGGLVQPGGSLRLSCAASGFTFSDYGLHWVRQAPGKGLEWVSYISSGSSTVYFADTLKGRFTISRDNAKNSLYLQMNSLRAEDTAVYYCTRGTWYFDVWGRGTLVTVSS
VL: DIQMTQSPSSLSASVGDRVTITCRTSENIHSYLAWYQQKPGKSPQLLVYNAKTLADGVPSRFSGSGSGTDYTLTISSLQPEDFGTFYCQHFWTTSRTFGGGTKVEIK
- EC50 (read off the curve) (human SLITRK6 on cells [1]): ~200 pM
- EC50 (read off the curve) (human SLITRK6 on cells [2]): ~200 pM
- EC50 (read off the curve) (human SLITRK6 on cells [3]): ~200 pM
- Kd (mouse SLITRK6): 590 pM
- Kd [4]: 250 pM
- Kd [5]: 140 pM
- EC50 (read off the curve) (human SLITRK6 on cells [6]): ~300 pM
- EC50 (read off the curve) (human SLITRK6 on cells [7]): ~300 pM
- EC50 (read off the curve) (human SLITRK6 on cells [8]): ~900 pM
- EC50 (read off the curve) (human SLITRK6 on cells [9]): ~300 pM
- EC50 (read off the curve) (human SLITRK6 on cells [10]): ~200 pM
- binding result (rat SLITRK6): no binding
- binding result (human SLITRK4): no binding
- binding result (human SLITRK1): no binding
- EC50 (read off the curve) (human SLITRK6 on cells [11]): ~200 pM
